Measured values reported in the DeepSol protein solubility set.

experiment: soluble on expression in E. coli; label from the status in PepcDB or PDB records

Sequence | soluble on expression in E. coli
MAHHHHHHMSRMPSTAARSQPYAFGPEGVMLDGGASEGRQNSVEALLAYCAARVAENPSWRTASWQQAGASNASAFRVPVSPRYLANASYAATGSPLCLRAGRIYLTDARIRAGIAEFQAAGLTVLPLTDDVLSRPSSRASKATVRVVPAMAVLLNGAWIATHFFHLVTDALEALRSAYQTWQDGVLLRIPTQTVLLHQPESNWMDRRGDTHGKMELSAALANAFSSPELARGSPYNSSFLFRSQSRHCAELEANATATMASPPPPRRQSPATVSTLCFCDGLLVTTHRLPVLERDILYGIQDWAARQFRASPYGVNRSVQEMERLRLQHALLSSTSTLWSIGTLTAPALSLSYKPRALFVHRTSRVIANASRYAGWMRAAGFRVEEVYLEKHTAAQQYHLGRYADIVVGMHGLGIGHAMWMERSPPRCRTVIEFRPWVIASMPTQPILILEGAMHYHFVTIPPIDVRFGPSVAHPAEERELLLSSARMVNAFRYPSFTDQIAIYDDERVKGVIADVRQHLERCLPP | not soluble
MAKKKSVFTCQECGYQSPKYLGRCPNCSAWSSFVEEVEVQEVKNARVSLNGEKSRPTKLKDVSSINYSRTKTDMDEFNRVLGGGVVPGSLVLIGGDPGIGKSTLLLQVSTQLANKGTVLYVSGEESAEQIKLRSERLGDIDNEFYLYAETNMQSIRSEIEKIKPDFLIIDSIQTIMSPEVSSVQGSVSQVREVTAELMQLAKTNNIATFIVGHVTKEGTLAGPRMLEHMVDTVLYFEGERHHTFRILRAVKNRFGSTNEIGIFEMQSGGLVEVLNPSQVFLEERLDGATGSAIVVTMEGTRPILAEVQALVTPTVFGNAKRTTTGLDFNRVSLIMAVLEKRCGLLLQNQDAYLKSAGGVKLDEPAIDLAVAVAIASSYKEKPTNPQESFIGEIGLTGEIRRVTRIEQRINEASKLGFTKIYAPKNSLAGIEIPKGIDVIGVTTVSQVLKAVFST | not soluble
MTKKQLHLVIVTGMSGAGKTVAIQSFEDLGYFTIDNMPPALLPKFLQLVEIKEDNPKLALVVDMRSRSFFSEIQAVLDELENQDGLDFKILFLDAADKELVARYKETRRSHPLAADGRILDGIKLERELLAPLKNMSQNVVDTTELTPRELRKTLAEQFSDQEQAQSFRIEVMSFGFKYGIPIDADLVFDVRFLPNPYYLPELRNQTGVDEPVYDYVMNHPESEDFYQHLLALIEPILPSYQKEGKSVLTIAMGCTGGQHRSVAFAKRLAQDLSKNWSVNEGHRDKDRRKETVNRS | not soluble
SEEDIDTRKINNSFLRDHSYATEADIISTVEFNHTGELLATGDKGGRVVIFQREQESKNQVHRRGEYNVYSTFQSHEPEFDYLKSLEIEEKINKIRWLPQQNAAYFLLSTNDKTVKLWKVSERDKRPEGYNLKDEEGRLRDPATITTLRVPVLRPMDLMVEATPRRVFANAHTYHINSISVNSDYETYMSADDLRINLWNFEITNQSFNIVDIKPANMEELTEVITAAEFHPHHCNTFVYSSSKGTIRLCDMRASALCDRHTKFFEEPEDPSNRSFFSEIISSISDVKFSHSGRYIMTRDYLTVKVWDLNMENRPIETYQVHDYLRSKLCSLYENDCIFDKFECVWNGSDSVIMTGSYNNFFRMFDRNTKRDVTLEASRENSKPRAILKPRKVCVGGKRRKDEISVDSLDFSKKILHTAWHPSENIIAVAATNNLYIFQDKVN | not soluble
MGSDKIHHHHHHMSTNLDQLTDWLKEHKITEVECMVSDLTGITRGKISPTNKFIAEKGMRLPESVLLQTVTGDYVEDDIYYELLDPADIDMICRPDQNAVYLVPWAVEPTAQVIHDTYDKQGNPIELSPRNVLKKVLKLYADQGWQPIVAPEMEFYLTKRSDDPDYPLQPPIGRSGRPETGRQSFSIEAANEFDPLFEDVYDWCELQNLDLDTLIHEDGTAQMEINFRHGDALSLADQILVFKRTMREAALKHDVAATFMAKPMTGEPGSAMHLHQSIIDIETGKNIFSNEDGTMSELFLNHVGGLQKFIPELLPLFAPNVNSFRRFLPDTSAPVNVEWGEENRTVGLRVPDAVPQNRRVENRLPGADANPYLAIAASLLCGFIGMVEGINPSAPVVGRGYERRNLRLPLTIEDALERMENSKTIEKYLGKKFIIGYVAVKRAEHENFKRVISSWEREFLLFAV | not soluble
MTQLCSDVRVSPLPGTAKVGDTYILFEHHGPWSHDILDGGTFDKETSAALKAMGCGFYLIRRHGREGRIERPKKTAYLVFGSAGIAEKLMVDDVTDLLKLDVSGPGKNRQFGAEQEAQPIILVCTHAKRDACCAIKGRPMAQALTEEFPDSPVWECSHTKGHRFAPSMVLMPWGYTWGQLNKPAAFDMYRYAQRGQLFLPGNRGRGIWPMKGQIAEVAVAQQLAQEGETVTLGQLRVESIEEAQAHVADSHTARTWTVFLREEVVAGIVDSCHKPPKTGTAWVADRVKENGALEHHHHHH | soluble
MGRHLRLPSGTKLIVARNQGEVNFLKGFRNRYNYAYRKDGKGTFALIKGNPPEEELQLIADIIARYSKNEPAKVGIHLNGKEIELIGNPPSDEFLEQFKIYAKKEVGHGR | not soluble
MALIELRHVKKEFSGKAGKVTALKDIDLTVESGDIYGIIGYSGAGKSTLVRLLNGLETPTEGEVEIQGQDIALLPNKELRNFRKKIGMIFQHFNLLWSRTVLENIMLPLEIAGVPKQNRKSRAEELIKLVGLEGRETAYPSQLSGGQKQRVGIARALANNPDILLCDEATSALDPQTTDEVLELLLKINQELNLTVVLITHEMHVIRKICNRVAVMEYGEIVEEGKVIDIFKKPQTEIAKRFIQQEADKNIEETELVVEEMLEQYPNGKIVRLLFHGEQAKLPIISHIVQEYQVEVSIIQGNIQQTKQGAVGSLYIQLLGEEQNILAAIEGLRKLRVETEVIGNE | not soluble
MSLRRARIAFASIDYTGDAWRHIPSVIGEMFAGIGEHAWRRDAVLEIVGVEDEEAEGYLRRVAERRPVDGLLLRVANDIRGEHLDILERAGMPYVLIKRHIPGRRMNCVISDDVTGARMATSHLLELGHRRIGFVCGKPHLTLNRERLAGYREALEEHGVGFDEGLVRQEEHFTTEMGYRAVRSLLEAPSRPSAVFVASDTMAIGGYEAVWDLGLRIPDDVSIVGYDDIQAASALQPPLTTVRTSYYDFGRLAAQLLLDLIEGREVAPQRRVIHPTLVVRGSTREGHHHHHH | soluble
GDVVEAVENAVARVADTIGSGPSNSQAVPALTAVETGHTSQVTPSDTVQTRHVKNYHSRSESSIENFLSRSACVYMGEYHTTNSDQTKLFASWTISARRMVQMRRKLEIFTYVRFDVEVTFVITSKQDQGTQLGQDMPPLTHQIMYIPPGGPIPKSVTDYTWQTSTNPSIFWTEGNAPPRMSIPFISIGNAYSNFYDGWSHFSQNGVYGYNTLNHMGQIYVRHVNGSSPLPMTSTVRMYFKPKHVKAWVPRPPRLCQYKNASTVNFSPTDITDKRNSITYIPDTVKPDVSNH | soluble
MNLPDGTQLVVGRQLAKVKSNQNWIRIPEYKVRGNKVIISHLWVGSINMPRRPFWSFRELWEKHLGRKDAINVWSRIRSYNTQVLLKILELLEKEPETQAKKLVKRATMHQLRNIAESFEEL | not soluble
TPGVEKRVIWAPGGYERRTPYALVYLHGFSATSEEIRPVPDHIAQALGANLVFTRLQGHGRGDDAMAQGSASGWMRDTAEALAAGRAVGERVIVIATSTGATLAAAAALDPEMSADVAAMILVSPNFGVNDPLAFVPTLPGARYWLPRLMGDARDVTGPDADKNTYWTTRYSWSALVPMSVLVQAVVSLDFAQARVPALFWFSDQDRVVRADLTRALAGRWGGPVRVEAVTMGPGDDPSSHVIAGDIMSPGQTDIAVAGMLAWLREQGI | not soluble
MAPSTEDPDTVVEAQRRGSFSKKKNANGWNKVELVDQCAKQMGSEDKQPGGGDVKTENDPSKNGLGSATSNFIQSSVPPSHQTLSNPLQLSPPAEASVAQQSGASQVFPTFQAALGASSDELLQPNATSSSTSSSASTSSIVPVVKFTNQTAPNGSTVATSVGQNVRLTINGKRVGRPPGTFKRPQNNAANSSNSGNDSDMMGDHDLTCRWKSCNSSFQTLKALVDHVQESHVQSTEQEHHAWRCEWEGCDRNETFKALYMLIVHVRRHTGEKPNKCEYPGCGKEYSRLENLKTHRRTHTGEKPYKCEFADCEKAFSNASDRAKHQNRTHSNLKPYSCQIPQCTKSYTDPSSLRKHIKAVHGDDEYEKAKKSRPANYSNRRRPDHRLAPPTGAMSHPYLATPNSGASVVAHSSVHQQNFINMALAQHHHNAQRAQQLMAATGNVMPMMDPASAAAAAQAQAHHQAQAQMLQTHMMQQAQIQAAAQMQAQVQHQAAMQAHAMQQAQMVLQNNLLGAQSLLSPFSPLLPPSRAPNVMAMLQTPPTPTSVAPMFDIMTSRAPMAPVVSAPTAPAPLVPAPVPASPVFDELREQMREVEPLQQQQQQEPMDQDLQDIRVDGDSDDEDEEEPRTPSGALLLPRGGNNGDGGFGGSGSSRASSGSGTMELSAAPISQNGSRASGSGERGMRSFLIADILQLAADFQNERLLSDVLDLAIFDTRDVRSLHNIYQVYIRAHKAIPITRRPLDWNETHQLHNLYHDPRFNRAEHQDSPAIRDRDTRFWRTIAEANTMRQRQIEPVPLDDDDEGYFDEMVHRVQNGRLNEQFMEGFESDDDDGFEDEDDVPGLGIAVYRGRRRVRREALKQANLDIQEAETAGRNVGGFGDEEDRNNRGHDQDRSFLDHYYPPMVVVVETESPQIVRDQEMMRQFEEAKKNVETDEIKKRAEAMQFGTSSSHHHTKTLLIQRALFDKTSSVRRSLLQFITISVDQEELRQSCHATSAPQGAHVVHNVVDEFDSIMRAQEDSNNRILLSLDIPAPSAVTGVSGSITHADNSALQLQQEQPTSSFSSWFPEDDPIYALPPPPPPPAPPRRRRSADNKDDSENIPKKPRHQF | not soluble
MSLKTIVVKFGTSTLTQGSPKLNSPHMMEIVRQIAQLHNDGFRIVIVTSGAIAAGRHYLNHPQLPPTIASKQLLAAVGQSQLIQAWEKLFAIYDIHIGQLLLTRADIEDRERFLNARDTLYALLDNHIIPVINENDAVATAEIKVGDNDNLSALVAILVQAEQLYLLTDQQGLFDSDPRKNPEAKLIPVVEQITDHIRSIAGGSGTNLGTGGMMTKIIAADVATRSGIETIIAPGNRPNVIADLAYEQNIGTKFIAHQSDRLESRKQWLFAAPSAGIITIDNGAQNAILEQNKSLLPAGIINVEGRFSRGEVVKIRTQSGKDIALGMPRYNSDALQLIKGRKSADIENVLGYEYGAVAMHRDDMIILSEGHHHHHH | soluble
MFKRLLMVALLVVAPLANAADQTNPYRLMNEAAEKTFNRLKSEQPKIKQSPDYLRTVVREELLPYVQVRYAGALVLGRYYKDSTPAQRDAYFKAFEAYLEQAYGQALAMYNGQNYQIAPEQPLGNADIVSIRVTIVDNGGRPPVRLDFQWRKNSKTGNWQAYDMIAEGVSMITTKQNEWASILRQKGVDGLTQQLESSAKQTITLDQKKLEHHHHHH | soluble
MGSDKIHHHHHHMIDKLEFFIALAKEEHFGRAAEACGVTQPTLSAGIKQLEGQLGVMLVNRGSRFQGLTPEGKQVLVWARRIVGDSRSMREEMRAARHGLSGRIRIAAIPTALAMVARLTTPFREKHPGVTFSVLSRTSIEVLSLLGNFDIDAGITYLDNEPLGRVTSVPLYDERYQLITAVGNPYSDRDKVTWAEISRLPLCLLTPDMQNRRIIDQHLAEAGVQVRPTLESNSMIVLFSHIRTGKWSSIMPLNLAETFGFSEPIRAIPIVEPDASHTVGLVAAPREPHTPLVQALLDEAMALADDFRAHR | not soluble
MKKERKPKIVIMGGGTGLSVLLRGLKQYPVDITAVVTIADDGGSSGRLRDELEIPPPGDIRNVLVALSDVEPLVEALFQHRFTTGDGLKGHALGNLLLAGMTSITGDFFHAITETSKVLNVRGRVLPAANQSAVLHAELEDGEIVTGESKIPYYGKKINRVFLTPEDVEPLHETLAEIKRADLLVFGPGSLYTSILPNLVVNKIGDAVLAAKAKKVYVCNVMTQAGETMGYTAFDHVQALHDHLGQPFINTAIVNNREIPCELRKSYEEEMSTPVVVDEERFVENNIDVIQEGLAKYDDHVVRHDTLKLASILYSLLMAGDPLEHHHHHH | soluble
